According to patent US20240383974A1 (BETTA PHARMACEUTICALS, published 2024):
Where two headings read alike, the source gives them in different places.

T1: GARP (CHO-K1-GARP cell line that overexpresses GARP) (UniProt Q14392 20-662, limits assumed)
T1 construct: whole, on cells; also called GARP protein
T1 sequence (looked up): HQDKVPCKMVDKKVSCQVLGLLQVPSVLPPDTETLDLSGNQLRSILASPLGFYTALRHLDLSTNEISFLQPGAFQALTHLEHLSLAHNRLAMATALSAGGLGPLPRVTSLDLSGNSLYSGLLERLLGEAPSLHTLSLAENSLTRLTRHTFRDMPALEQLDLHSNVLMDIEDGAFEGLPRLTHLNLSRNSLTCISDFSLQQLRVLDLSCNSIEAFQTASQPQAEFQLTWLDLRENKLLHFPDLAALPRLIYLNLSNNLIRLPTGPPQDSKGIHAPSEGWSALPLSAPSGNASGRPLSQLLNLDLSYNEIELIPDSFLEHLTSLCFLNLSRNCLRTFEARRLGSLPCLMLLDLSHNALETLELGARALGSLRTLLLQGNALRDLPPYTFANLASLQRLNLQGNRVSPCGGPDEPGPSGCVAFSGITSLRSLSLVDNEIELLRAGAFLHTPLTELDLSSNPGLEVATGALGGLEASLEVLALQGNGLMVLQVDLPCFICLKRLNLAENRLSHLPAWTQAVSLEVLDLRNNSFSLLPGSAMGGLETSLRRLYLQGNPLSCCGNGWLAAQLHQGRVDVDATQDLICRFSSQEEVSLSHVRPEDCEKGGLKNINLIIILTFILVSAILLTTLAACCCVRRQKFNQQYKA


Tests used:
[1] = molecular target: T2, GARP-TGF-β complex (293-GARP/TGFβ stably transfected cells) (UniProt Q14392 20-662; P01137 30-390); assay: cell-based or functional assay
human PD-L1 [2] = molecular target: T3, human PD-L1 (human, UniProt Q9NZQ7 19-290); assay: cell-based or functional assay
human PD-L1 [3] = molecular target: T3, human PD-L1; assay: FACS on MC38-hPD-L1 cells
[4] = molecular target: T2, GARP-TGF-β complex (293-GARP/TGFβ …); assay: FACS on 293-GARP/TGFβ cells
[5] = molecular target: T1, GARP (CHO-K1-GARP cell line that …); assay: FACS on CHO-K1-GARP cells
[6] = molecular target: T2, GARP-TGF-β complex (293-GARP/TGFβ …); assay: FACS on 293-GARP/TGFβ cells; remark: listed apart in the source

T3 sequence (Q9NZQ7 19-290): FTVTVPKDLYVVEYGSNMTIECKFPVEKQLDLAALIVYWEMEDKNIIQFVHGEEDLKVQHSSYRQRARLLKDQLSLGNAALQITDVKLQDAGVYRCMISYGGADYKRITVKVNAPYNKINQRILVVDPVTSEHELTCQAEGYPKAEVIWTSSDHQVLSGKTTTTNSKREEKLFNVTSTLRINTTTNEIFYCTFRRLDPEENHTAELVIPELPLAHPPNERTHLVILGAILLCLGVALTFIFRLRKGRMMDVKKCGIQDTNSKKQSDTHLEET

| IC50(nM), TGFβ reporter gene blocking (293F-GAPR/TGFβ/αvβ6 cells with 293-SBE-Luciferase cells) [1] [nM] | IC50(nM), PD-1/PD-L1 NFAT-luciferase reporter (293T-hPD-L1 with Jurkat-PD1-CD3zeta-NFAT-Luc2 cells) (human PD-L1 [2]) [nM] | EC50 (human PD-L1 [3]) [nM] | EC50 [4] [nM] | EC50 [5] [nM] | EC50 [6] [nM] | Binder | binding result (human PD-L1 [3]) |
| --- | --- | --- | --- | --- | --- | --- | --- |
| 1.7 | 13 | 0.39 | 5.4 |  |  | b202-L-D2hu (bispecific antibody, human IgG1, kappa, also called b202-hu-L-D2hu) heavy: not shown light: DIVLTQSPDSLAVSLGERATINCRASESVTIIGTNLIQWFQQKPGQPPKLLIYHASNLETGVPDRFSGSGSRTDFTLTISSLQAEDVAVYYCLQSRQIPRTFGGGTKVEIKRTVAAPSVFIFPPSDEQLKSGTASVVCLLNNFYPREAKVQWKVDNALQSGNSQESVTEQDSKDSTYSLSSTLTLSKADYEKHKVYACEVTHQGLSSPVTKSFNRGECGGGGSGGGGSGGGGSGGGGSEVQLVESGGGLVQPGGSLRLSCAASGRDFLTYGMGWFRQAPGKGLEFVASINWSGSMTYYADSVKGRFTISRDNAKNSVYLQMNSLRAEDTAVYICAARRGAVTYASSNEYEHWGQGTQVTVSS |  |
|  |  |  |  | 0.45 | 2.1 | antibody m305-hu (antibody, V domains shown, Humanized m305) VH: QVQLVQSGAEVKKPGASVKVSCKTSGYTFTDYNMNWVKQAPGQGLEWIGDINPYSGGTIYNQKFKGRATLTTDTSTSTAYMELRSLRSDDTAVYYCARVSKGSGDYWGQGTLVTVSS VL: DIQMTQSPSSLSASVGDRVTITCRASQEISGYLSWLQQKPGGAPKRLIYAASTLDSGVPSRFSGSRSGTDYTLTISSLQPEDFATYYCLQYASYPTCTFGGGTKVEIK |  |
|  |  |  |  | 1.4 | < 2 | antibody m212-hu (antibody, V domains shown, Humanized m212) VH: QVQLVQSGAEVKKPGSSVKVSCKASGYIFTSYWMHWVKQAPGQGLEWIGRIAPNSGGAHYHEKFKTKVTITADKSTSTAYMEFSSLRSEDTAVYYCARGNYGMDYWGQGTAVTVSS VL: DIQMTQSPSSLSASVGDRVTITCRASQDISNYLNWYQQKPGGAPELLIYYTSTLHSGVPSRFSGSGSGTDYTLTISSLQPEDFATYFCQQVNTLPFTFGSGTKLEIK | no binding (tested: initial concentration 200 nM) |
